Data taken from the RNAGym collection of RNA variant scans (doi:10.7554/elife.90254).

B1: LINE1-full (parent)
chain: UACGUAGGUGGUUUUCCCCUGAUAGUGCUAAGGGGGCCUGGAAGUUUGGACUGGGCAGAGCUCAACACAGCGUGGCAAAGUGGCUGUGGCUAGACUGCCUCUCUGGAUUCCUCGUCACUCAGCAGGGCAUCUCUGAGAGAAAUGCC

Variants of: B1
Assay: self-cleavage, relative activity (ratio to wild type); higher = more cleavage; in vitro, sequencing; the parent is a self-cleaving ribozyme

Row | Variant | self-cleavage
1 | C99A A124G | 0.21
2 | U96G U115C | 0
3 | U100C G127U | 1.84
4 | U100C G127A | 1.9
5 | G97A A107G | 0.13
6 | U100A A136G | 1.25
7 | U96A G144A | 0.07
8 | U100C A141G | 1.9
9 | U96C G139U | 0.14
10 | A92G U115C | 0.08
11 | A94G U108C | 0.61
12 | U96C G97A | 0.02
13 | U100C C113U | 1.7
14 | U100A U108A | 0.97
15 | U100A U108C | 1.96
16 | A94G A142G | 0.41
17 | U96G U119A | 0.03
18 | A94U C133U | 0.29
19 | U100A C111A | 1.19
20 | G93A U132C | 0.03
21 | C95A U112C | 0.05
22 | U100C U108A | 1.42
23 | U96A C110G | 0.09
24 | C98U A107G | 0.46

Row | Variant | self-cleavage
25 | G93U A121C | 0.03
26 | G97C G106U | 0.2
27 | A92G U134C | 0
28 | U96A A141G | 0.08
29 | C99U C101U | 1
30 | U100C G126C | 2.64
31 | A94G A124U | 0.36
32 | U100A U112A | 0.91
33 | U100A U112C | 1.09
34 | C99U U115C | 1.15
35 | C99U U115A | 0.33
36 | A94G G97A | 0.02
37 | C95U A141G | 0.07
38 | A92U G126A | 0.41
39 | C98G | 0.13
40 | C98U | 0.4
41 | C98A | 0.17
42 | C99A A107G | 0.61
43 | C98U U102C | 0.55
44 | C99G | 0.76
45 | C99A | 0.4
46 | C99U | 0.57
47 | U96G U102C | 0
48 | U96A A138G | 0.07

Row | Variant | self-cleavage
49 | A94G U143A | 0.55
50 | U96C C128U | 0.12
51 | A94U A121G | 0.52
52 | C99G U112A | 0.69
53 | G97A G126U | 0.07
54 | G97A G126A | 0.09
55 | A92G U100A | 0.13
56 | U96A A124U | 0.06
57 | A94C U109A | 0.05
58 | A94C U109C | 0
59 | U96A C99U | 0.03
60 | A94G A138G | 0.19
61 | U96C U109C | 0.08
62 | U96C U109G | 0.16
63 | U96C U109A | 0.15
64 | U96C C131U | 0.09
65 | A94G A117U | 0.4
66 | A94U A140G | 0.23
67 | C95U U134C | 0.11
68 | A94U A142C | 0.09
69 | A94U A142G | 0.34
70 | U96G U109C | 0.17
71 | C99A U115C | 0.84
72 | A94U A136G | 0.3

Row | Variant | self-cleavage
73 | C99A C113U | 0.27
74 | A94G A107G | 0.51
75 | A94U U108C | 0.46
76 | U100C A107C | 2.87
77 | C99U A124G | 0.32
78 | C99U A124U | 0.42
79 | G97A A141G | 0.12
80 | A92U | 0.66
81 | C98U C123U | 0.35
82 | G97U A129U | 0.08
83 | G97U U132A | 0.03
84 | C98G G125A | 0.05
85 | U96A C123U | 0.06
86 | G93U A136G | 0.08
87 | A92U A141G | 0.96
88 | A92U U115C | 0.72
89 | A92U U115A | 0.62
90 | A92U A117G | 1.46
91 | U96A A107U | 0.08
92 | U96A A107G | 0.08
93 | U96C U112A | 0.12
94 | U96C U112C | 0.12
95 | U96C C123U | 0.04
96 | U96C U130A | 0.12

Row | Variant | self-cleavage
97 | G97A U130C | 0.19
98 | U100C A129G | 1.99
99 | G93A A129G | 0.08
100 | U96A A129G | 0.07
101 | U96A A129U | 0.07
102 | A94C C95U | 0.02
103 | U96C C133U | 0.08
104 | A94U U112G | 0.42
105 | U100C G144A | 1.07
106 | U100C G144C | 1.95
107 | A92U C118G | 0.37
108 | U96C C101U | 0.06
109 | U100A C118U | 0.98
110 | A94U U102C | 0.16
111 | U96C U102A | 0.11
112 | U96C U102C | 0.12
113 | G97A U104A | 0.06
114 | U96C A121G | 0.12
115 | U96C A121C | 0.09
116 | U96C A140G | 0.09
117 | U96A G122A | 0.06
118 | G93A A142G | 0.04
119 | U96C U119A | 0.18
120 | U96C U119C | 0.22

Row | Variant | self-cleavage
121 | A92U A107U | 0.89
122 | A92U A107C | 0.9
123 | A94U A117U | 0.41
124 | A94U A117G | 0.38
125 | A94G C131U | 0.17
126 | U96A G127U | 0.05
127 | G93A A140G | 0.06
128 | U96C G144A | 0.25
129 | U96G U134C | 0.23
130 | A94G G105A | 0.18
131 | A94G G105U | 0.2
132 | C95U A117U | 0.21
133 | C95U A124U | 0.2
134 | U96C U108C | 0.17
135 | U96C U108G | 0
136 | A94G U119A | 0.39
137 | A94G U119C | 0.38
138 | A94C U96C | 0.18
139 | U96G G126A | 0
140 | A94U C113U | 0.12
141 | G93A C95G | 0.04
142 | G93U U115C | 0.04
143 | G97A A121C | 0.12
144 | C99U C113U | 0.41

Row | Variant | self-cleavage
145 | G97A U108C | 0.17
146 | U100A U119A | 0.71
147 | C98A U130C | 0.13
148 | U96A A121G | 0.1
149 | U96A A121C | 0.06
150 | U100A A121G | 1.58
151 | U96A G105A | 0.04
152 | U96A G125U | 0.09
153 | U100C C118A | 2
154 | C99A U143C | 1.03
155 | C99A U143A | 0.84
156 | A94U U96A | 0.08
157 | G93A U102C | 0.06
158 | A92U U134A | 0.52
159 | A92U U134C | 0.71
160 | G93A A141G | 0.04
161 | C99A A138G | 0.88
162 | U96A U108A | 0.13
163 | C95A U130C | 0
164 | A94G A141U | 0.19
165 | G93C C120U | 0.03
166 | G93A U130C | 0.02
167 | A92U U132A | 0.69
